Data published in article PMC3526295.

Biological target: T1, Mre11-W243R (Homo sapiens, UniProt P49959 1-708, W243R)
T1 sequence: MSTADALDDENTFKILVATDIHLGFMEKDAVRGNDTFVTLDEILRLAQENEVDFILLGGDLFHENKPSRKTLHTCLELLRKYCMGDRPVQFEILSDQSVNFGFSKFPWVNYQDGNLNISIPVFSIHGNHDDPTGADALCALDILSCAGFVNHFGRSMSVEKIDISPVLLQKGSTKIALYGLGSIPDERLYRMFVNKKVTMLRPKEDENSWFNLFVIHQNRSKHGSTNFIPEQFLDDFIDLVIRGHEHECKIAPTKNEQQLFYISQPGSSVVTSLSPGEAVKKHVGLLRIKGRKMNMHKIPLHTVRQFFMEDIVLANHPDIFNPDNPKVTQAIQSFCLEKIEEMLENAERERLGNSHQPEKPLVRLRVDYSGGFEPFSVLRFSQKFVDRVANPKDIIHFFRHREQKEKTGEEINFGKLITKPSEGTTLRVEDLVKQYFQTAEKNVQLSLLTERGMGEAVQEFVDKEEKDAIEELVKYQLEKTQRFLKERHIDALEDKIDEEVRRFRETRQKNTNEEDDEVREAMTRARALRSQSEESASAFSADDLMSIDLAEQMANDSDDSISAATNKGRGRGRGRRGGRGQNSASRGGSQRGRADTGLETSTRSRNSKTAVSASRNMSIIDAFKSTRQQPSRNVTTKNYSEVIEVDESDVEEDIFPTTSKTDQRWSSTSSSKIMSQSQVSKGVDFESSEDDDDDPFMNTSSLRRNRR
Experiment: EMSA

B1: ssDNA90 (ssDNA)
DNA: AATTCTCATTTTACTTACCGGACGCTATTAGCAGTGGCAGATTGTACTGAGAGTGCACCATATGCGGTGTGAAATACCGCACAGATGCGT
- binding result: binds

B2: dsDNA90 (dsDNA)
DNA 1: B1 DNA
DNA 2: ACGCATCTGTGCGGTATTTCACACCGCATATGGTGCACTCTCAGTACAATCTGCCACTGCTAATAGCGTCCGGTAAGTAAAATGAGAATT
- binding result: binds
